This passage reports Kd results from patent publication US20180142030A1 (Bristol-Myers Squibb, published 2018).

A word on the Kd: it is a measure of binding affinity in units of concentration.

The chains are these.
B1: 19G3 (parental) (antibody, V domains shown)
VH: EVQLVESGGGLVKPGGSLKLSCAASGFTFSSYAMSWVRQSPEKRLEWVAEISGGGSYTYYPDTVTGRFTISRDNAKNTLYLEMSSLRSEDTAMYYCASRAYWGQGTLVTVSA
VL: DVLMTQTPLSLPVSLGDQASISCRSSQSIVHSNGNTYFEWYLQKPGQSPKLLIYKVSNRFSGVPDRFSGSGSGTDFTLKISRVEAEDLGVYYCFQGSHVPYTFGGGTKLEIK
notes: Mouse variable domains; also called 1802.3582.19G3.F10.E1; mAb 19G3
B2: 5G7-25 (antibody, human IgG1, kappa, V domains shown)
VH: QVQLVQSGAEVKKPGASVKVSCKASGYTFTDYNMDWVRQAPGQGLEWMGDINPKNAGTIYNLKFKGRVTLTVDTSTSTAYMELRSLRSDDTAVYYCVRRMDYWGQGTTVTVSS
VL: DIQMTQSPSSLSASVGDRVTITCRASQDISNYLNWYQQKPGKVPKLLIYYISRLHSGVPSRFSGSGSGTDFTLTISSLQPEDVATYYCQQGNTLPYTFGGGTKVEIKR
notes: Humanized; IgG1f
B3: 5G7-28 (antibody, human IgG1, kappa, name in Kabat numbering, V domains shown)
VH: QVQLVQSGAEVKKPGASVKVSCKASGYTFTDYNMDWVRQAPGQGLEWMGDINPKNAGTIYNLKFKGRVTLTVDTSTSTAYMELRSLRSDDTAVYYCVRRLDYWGQGTTVTVSS
VL: DIQMTQSPSSLSASVGDRVTITCRASQDISNYLNWYQQKPGKVPKLLIYYISRLHSGVPSRFSGSGSGTDFTLTISSLQPEDVATYYCQQGNTLPYTFGGGTKVEIKR
B4: 5G7-22 (antibody, human IgG1, kappa, V domains shown)
VH: QVQLVQSGAEVKKPGASVKVSCKASGYTFTDYNMDWVRQAPGQGLEWMGDINPKNGGTIYNLKFKGRVTLTTDTSTSTAYMELRSLRSDDTAVYYCVRRMDYWGQGTTVTVSS
VL: DIQMTQSPSSLSASVGDRVTITCRASQDISNYLNWYQQKPGKVPKLLIYYISRLHSGVPSRFSGSGSGTDFTLTISSLQPEDVATYYCQQGNTLPYTFGGGTKVEIKR
notes: Humanized; IgG1f
B5: 12D6-03 (antibody, human IgG1, kappa, V domains shown)
VH: QVQLVQSGAEVKKPGASVKVSCKASGYTFTGYNMNWVRQAPGQGLEWMGNIDPYYGNTNYNQKFKGRVTMTTDTSTSTAYMELRSLRSDDTAVYYCARLGLQLYAMDYWGQGTTVTVSS
VL: DIVMTQTPLSLPVTPGEPASISCRSSQSLVHSNGNTYLHWYLQKPGQSPQLLIYKLTNRFFGVPDRFSGSGSGTDFTLKISRVEAEDVGVYYCSQSIHVPWTFGGGTKVEIKR
notes: Humanized
B6: 8E8-62 (antibody, human IgG1, kappa, V domains shown)
VH: QVQFVQSGAEVKKPGSSVKVSCKASGYTFTSYWMQWVRQAPGQGLEWMGTIYPGDGDSRYNQKFKGKALLTADKSTSTAYMELSSLRSEDTAVYYCARFSLYEGYPYYFDYWGQGTTVTVSS
VL: DIVMTQSPLSLPVTPGEPASISCRSSQSLVHRNGNTYLHWYLQKPGQSPQLLIYRVSNRFSGVPDRFSGSGSGTDFTLKISRVEAEDVGVYYCSQSTHFPYTFGGGTKVEIKR
notes: Humanized; IgG1f
B7: 19G3-11 (antibody, human IgG1, kappa, V domains shown)
VH: EVQLVESGGGLVKPGGSLRLSCAASGFTFSSYAMSWVRQAPGKGLEWVSEISGGGSYTYYPDTVTGRFTISRDNAKNSLYLQMNSLRAEDTAVYYCASRAYWGQGTLVTVSS
VL: DIVMTQTPLSLPVTPGEPASISCRSSQSIVHSNGNTYFEWYLQKPGQSPQLLIYKVSNRFSGVPDRFSGSGSGTDFTLKISRVEAEDVGVYYCFQGSHVPYTFGGGTKVEIKR
notes: Humanized; IgG1f
B8: 19G3-23 (antibody, human IgG1, kappa, name in Kabat numbering, V domains shown)
VH: EVQLVESGGGLVKPGGSLRLSCAASGFTFSSYAMSWVRQAPGKGLEWVSEISGGGSYTYYPDTVTGRFTISRDNAKNSLYLQMNSLRAEDTAVYYCASRAYWGQGTLVTVSS
VL: DIVMTQTPLSLPVTPGEPASISCRSSQSIVHSNANTYFEWYLQKPGQSPQLLIYKVSNRFSGVPDRFSGSGSGTDFTLKISRVEAEDVGVYYCFQGSHVPYTFGGGTKVEIKR
notes: Heavy chain inferred from the identical VH description (VH3-21 S94R) of 19G3-11; Light chain is the VKII O11 CDR graft of 19G3-11 with G29A
B9: 8E8-66 (antibody, human IgG1, kappa, V domains shown)
VH: QVQFVQSGAEVKKPGSSVKVSCKASGYTFTSYWMQWVRQAPGQGLEWMGTIYPGDGDSRYNQKFKGKALLTADKSTSTAYMELSSLRSEDTAVYYCARFSLYDGYPYYFDYWGQGTTVTVSS
VL: DIVMTQSPLSLPVTPGEPASISCRSSQSLVHRNANTYLHWYLQKPGQSPQLLIYRVSNRFSGVPDRFSGSGSGTDFTLKISRVEAEDVGVYYCSQSTHFPYTFGGGTKVEIKR
B10: 12D6-24 (antibody, human IgG1, kappa)
heavy: not shown
light: DIVMTQTPLSLPVTPGEPASISCRSSQSLVHSNANTYLHWYLQKPGQSPQLLIYKLTNRFFGVPDRFSGSGSGTDFTLKISRVEAEDVGVYYCSQSIHVPWTFGGGTKVEIKRTVAAPSVFIFPPSDEQLKSGTASVVCLLNNFYPREAKVQWKVDNALQSGNSQESVTEQDSKDSTYSLSSTLTLSKADYEKHKVYACEVTHQGLSSPVTKSFNRGEC
notes: Humanized; IgG1f; also called 12D6-24 IgG1f; mAb 12D6-24 human IgG1f (control)
B11: 12D6-22 (antibody, human IgG1, kappa, V domains shown)
VH: QVQLVQSGAEVKKPGASVKVSCKASGYTFTGYNMNWVRQAPGQGLEWMGNIDPYYGNTNYNQKFKGRVTMTTDTSTSTAYMELRSLRSDDTAVYYCARLGLQLYAMDYWGQGTTVTVSS
VL: DIVMTQTPLSLPVTPGEPASISCRSSQSLVHSNANTYLHWYLQKPGQSPQLLIYKLTNRFFGVPDRFSGSGSGTDFTLKISRVEAEDVGVYYCSQSIHVPWTFGGGTKVEIKR
notes: Humanized; IgG1f
B12: 19G3-22 (antibody, human IgG1, kappa, V domains shown)
VH: EVQLVESGGGLVKPGGSLRLSCAASGFTFSSYAMSWVRQAPGKGLEWVSEISGGGSYTYYPDTVTGRFTISRDNAKNSLYLQMNSLRAEDTAVYYCASRAYWGQGTLVTVSS
VL: DIVMTQTPLSLPVTPGEPASISCRSSQSIVHSQGNTYFEWYLQKPGQSPQLLIYKVSNRFSGVPDRFSGSGSGTDFTLKISRVEAEDVGVYYCFQGSHVPYTFGGGTKVEIKR
notes: Humanized; IgG1f
B13: 8E8-56 (antibody, human IgG1, kappa, V domains shown)
VH: QVQFVQSGAEVKKPGSSVKVSCKASGYTFTSYWMQWVRQAPGQGLEWMGTIYPGDGDSRYNQKFKGKALLTADKSTSTAYMELSSLRSEDTAVYYCARFSLYDGYPYYFDYWGQGTTVTVSS
VL: DIVMTQSPLSLPVTPGEPASISCRSSQSLVHRNGNTYLHWYLQKPGQSPQLLIYRVSNRFSGVPDRFSGSGSGTDFTLKISRVEAEDVGVYYCSQSTHFPYTFGGGTKVEIKR
notes: Humanized; IgG1f
B14: 12D6-23 (antibody, human IgG1, kappa, V domains shown)
VH: QVQLVQSGAEVKKPGASVKVSCKASGYTFTGYNMNWVRQAPGQGLEWMGNIDPYYGNTNYNQKFKGRVTMTTDTSTSTAYMELRSLRSDDTAVYYCARLGLQLYALDYWGQGTTVTVSS
VL: DIVMTQTPLSLPVTPGEPASISCRSSQSLVHSNGNTYLHWYLQKPGQSPQLLIYKLTNRFFGVPDRFSGSGSGTDFTLKISRVEAEDVGVYYCSQSIHVPWTFGGGTKVEIKR
notes: Humanized; IgG1f
B15: 12D6 (parental) (antibody, V domains shown)
VH: EVQLQQSGPELEKPGASVKMSCKASGYSFTGYNMNWVKQSNGKSLEWIGNIDPYYGNTNYNQKFKGKATLTVDKSSSTAYLQLKSLTSEDSAVYYCARLGLQLYAMDYWGQGTSVTVSS
VL: DVVMTQTPLSLPVSLGDQASISCRSSQSLVHSNGNTYLHWYLQKPGQSPNLLIYKLTNRFFGVPDRFSGSGSGTDFTLKISRVEAEDLGVYFCSQSIHVPWTFGGGTKLEIK
notes: Mouse variable domains; also called 1802.3716.12D6.B1.E3; mAb 12D6
B16: 8E8 (parental) (antibody, V domains shown)
VH: QVQFQQSGAELARPGASVKLSCKASGYTFTSYWMQWVKQRPGQGLEWIGTIYPGDGDSRYNQKFKGKALLTADKSSSIAYMQLNSLASEDSAVYFCARFSLYDGYPYYFDYWGQGTTLTVSS
VL: DVVMTQTPLSLPVSLGDQASISCRSSQSLVHRNGNTYLHWYLQKPGQSPKLLIYRVSNRFSGVPDRFSGSGSGTDFTLKISRVEAEDLGIYFCSQSTHFPYTFGGGTKLEIK
notes: Mouse variable domains; also called 1802.3583.8E8.C10.G2; mAb 8E8
B17: 5F11-17 (antibody, human IgG1, kappa)
heavy: not shown
light: DIVMTQSPDSLAVSLGERATINCRASKNVDSYGNSFMHWYQQKPGQPPKLLIYRASNLESGVPDRFSGSGSGTDFTLTISSLQAEDVAVYYCQQSNEDPLTFGQGTKLEIKRTVAAPSVFIFPPSDEQLKSGTASVVCLLNNFYPREAKVQWKVDNALQSGNSQESVTEQDSKDSTYSLSSTLTLSKADYEKHKVYACEVTHQGLSSPVTKSFNRGEC
notes: Humanized; IgG1f
B18: 5F11-23 (antibody, human IgG1, kappa)
heavy: not shown
light: DIVLTQSPDSLAVSLGERATISCRASKNVDSYGNSFMHWYQQKPGQPPKLLIYRASNLESGVPDRFSGSGSGTDFTLTISSLQAEDVAVYYCQQSNEDPLTFGQGTKLEIKRTVAAPSVFIFPPSDEQLKSGTASVVCLLNNFYPREAKVQWKVDNALQSGNSQESVTEQDSKDSTYSLSSTLTLSKADYEKHKVYACEVTHQGLSSPVTKSFNRGEC
notes: Humanized; IgG1f
B19: 5F11-45 (antibody, human IgG1, kappa)
heavy: not shown
light: DIVLTQSPDSLAVSLGERATINCRASKNVDSYGNSFMHWYQQKPGQPPKLLIYRASNLESGVPDRFSGSGSGTDFTLTISSLQAEDVAVYYCQQSNEDPLTFGQGTKLEIKRTVAAPSVFIFPPSDEQLKSGTASVVCLLNNFYPREAKVQWKVDNALQSGNSQESVTEQDSKDSTYSLSSTLTLSKADYEKHKVYACEVTHQGLSSPVTKSFNRGEC
notes: Humanized; IgG1f
B20: 5G7 (parental) (antibody, V domains shown)
VH: EVLLQQSGPELVKPGASVKIPCKASGYKFTDYNMDWVKQSHGKSLEWIGDINPKNGGTIYNLKFKGKATLTVDMSSSTAYMELRSLTSEDTAVYYCVRRMDYWGQGTSVTVSS
VL: DIQMTQTTSSLSASLGDRVTISCRASQDISNYLNWYQQKPDGTVKLLIYYISRLHSGVPSRFRGSGSGTDFSLTISNLEQEDIATYFCQQGNTLPYTFGGGTNLEIK
notes: Mouse variable domains; also called 1802.3583.5G7.F12.G3; mAb 5G7

The target in the experiment is T1, recombinant human CD40 monomer (human, UniProt P25942 21-193).
T1 construct: also called huCD40-monomer; soluble human CD40
T1 sequence (P25942 21-193 limits assumed): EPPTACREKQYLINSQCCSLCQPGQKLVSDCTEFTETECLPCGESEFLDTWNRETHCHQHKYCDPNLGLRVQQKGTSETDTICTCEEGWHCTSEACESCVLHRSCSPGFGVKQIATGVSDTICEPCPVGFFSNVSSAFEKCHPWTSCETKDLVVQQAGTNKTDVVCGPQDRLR
The experiment is described as follows: BLI (Octet RED); antibody supernatant captured on protein A sensors, huCD40-monomer in solution. From the text: The closest matching human germline region sequence was selected for each mouse variable domain, and these human framework regions were used to replace murine frameworks in the “CDR graft” versions of the antibodies. Additional amino acid substitutions, such as framework back-mutations, were then made as necessary to restore the binding affinity of the humanized antibody. Further amino acid substitutions were made to eliminate sequence liabilities. The sequence relationships between the various forms of the antibodies of the present invention are provided at Table 6. The binding of various agonistic anti-huCD40 antibodies to soluble human CD40 was determined by Biolayer Interferometry (BLI) analysis using a Fortebio Octet RED (Rapid system—Extended Detection) label-free interaction analysis instrument. All studies were performed in 10 mM NaₓPO₄, 130 mM NaCl, 0.05% Surfactant P20 (pH 7.1) at 25° C. Briefly, anti-huCD40 antibody supernatants (diluted to 10 μg/ml or captured undiluted if supernatant concentration was less than 10 μg/ml) were captured on protein A coated biosensors (Pall Fortebio #18-5010) using a loading time of 90 s and shake speed of 1000 rpm. Supernatants were first screened for binding to 1 μM recombinant human CD40 monomer (huCD40-monomer) using 180 s association and dissociation times, at 1000 rpm, with two 15 s conditioning steps using 10 mM glycine pH 1.5 in between binding cycles.
For orientation: Biolayer interferometry detects binding as a change in optical thickness at a sensor tip.
As for B1, the dissociation constant (Kd) came to 870 nM.
The same measure for B2: 69 nM; for B3: 230 nM; for B4: 50 nM.
The same measure for B5: 4.8 nM; for B6: 31 nM; for B7: 850 nM.
To B8 belongs 1300 nM; to B9, 82 nM; to B10, 5.6 nM.
B11: the dissociation constant (Kd) worked out at 3.6 nM.
The same measure for B12: 99 nM.
The same measure for B13: 82 nM; for B14: 4.3 nM.
To B15 belongs 3.6 nM.
On to B16, for which the Kd came to 85 nM.
Turning to B17, the dissociation constant (Kd) was determined as 8.4 nM.
The same measure for B18: 4.9 nM.
The same measure for B19: 12.3 nM; for B20: 89 nM.
